# In US20120308566A1 (published 2012):
# What was measured:
# [1] = target: Human IL-17RA full-length expressed on the surface of cells (human, UniProt Q96F46 33-866); assay: cell-based or functional assay
# chimera L = target: T1, chimera L; assay: Bio-Plex titration on His-captured chimera; bold cell = binding criterion not met
# T1 construct: also called Construct L; B+F
# Protocol: Twelve bead codes of pentaHis-coated beads (Qiagen, Valencia, Calif.; see www1.qiagen.com) were used to capture histidine-tagged protein. The 12 bead codes allowed the multiplexing of 11 chimeric and the wild type human IL-17RA.
# To prepare the beads, 100 ul of wild-type IL-17RA supernatant from transient expression culture and 100 ul of 2.5 ug/ml chimeric protein were bound to penta-His-coated beads overnight at 4° C. or 2 hours at room temperature with vigorous shaking. The beads were washed as per the manufacturer's protocol and the 12 bead set was pooled and aliquoted into 2 or 3 columns of a 96-well filter plate (Millipore, Billerica, Mass., product #MSBVN1250) for duplicate or triplicate assay points, respectively. 100 ul anti-IL-17RA antibodies in 4-fold dilutions were added to the wells, incubated for 1 hour at room temperature, and washed. […] Beads were resuspended in 1% BSA, shaken for 3 minutes, and read on the Bio-Plex workstation. Antibody binding to IL-17RA chimeric protein was compared to antibody binding to the human IL-17RA wild-type from the same pool. A titration of antibody over approximately a 5 log scale was performed. Median Fluorescence Intensity (MFI) of chimeric proteins was graphed as a percent of maximum wild-type human IL-17RA signal.
# huIL-17RA-FLAG-polyHis = target: T2, huIL-17RA-FLAG-polyHis (human, UniProt Q96F46 33-320); assay: multiplexed Luminex binning
# T2 construct: also called wild-type IL-17RA-FLAG-polyHis; HuIL-17RA-Flag-pHis
# Protocol: Cross-competition studies were performed to determine IL-17RA binding characteristics of exemplary IL-17RA antibodies. […] The method employed the Bio-Plex Workstation and software (BioRad, Hercules, Calif.), as well as reagents from Luminex® Corp. (Austin, Tex.). The manufacturers' basic protocols were followed except where noted below (see www.bio-rad.com and www.luminexcorp.com for details). […] The mouse-anti-human IgG coating was evaluated and the beads quantified by FACS. Each bead code was separately incubated with 10 ul of anti-IL-17RA antibody for 1 hour at room temperature and then washed. The beads were pooled and then dispensed to a 96-well filter plate (Millipore, Billerica, Mass., product #MSBVN1250). […] The PE-tagged monovalent antibody will detect the presence of the second mAb added to the well, but not the first mAb captured by the monovalent mouse-anti-human IgG antibody. Beads were resuspended in 120 ul PBSAT and at least 100 events/bead code were collected on the Bio-Plex workstation as per the manufacturer's recommended protocol.
binder,measurement,setting,value
"AMH21/AML21 (antibody, IgG2, V domains shown) VH: EVQLVESGGGSVQPGGSLRLSCAASGFTFSSYSMNWVRQAPGKGLEWVSIISSRSSIIHYADSVKGRFTISRDNAKNSLYLQMNSLRDEDTAVYYCARPKVGGGMDVWGQGTTVTVSS VL: DIQMTQSPSSLSASVGDRVTITCRASQGISNYLAWYQQKPGKFPELLIYAASTLQSGVPSRFSGSGSGTDFTLTISSLQPEDVATYYCQKYNRAPFTFGPGTKVDIK",IL-17A/HFF bioassay IC50; 4. Subclone of (AMH21/AML21),[1],2.3 nM
same,IL-17A/HFF bioassay IC50; 5. Subclone of (AMH21/AML21),[1],3.1 nM
same,IL-17A/HFF bioassay IC50; 6. Subclone of (AMH21/AML21),[1],3.3 nM
"AMH20/AML20 (antibody, IgG2, V domains shown) VH: EVQLVESGGGLVQPGGSLRLSCAASGFTFSSYSMNWVRQAPGKGLEWVSFISARSSTIYYADSVKGRFTISRDNAKNSLYLQMNSLRDEDTAVYYCARPKVGGGMDVWGQGTTVTVSS VL: DIQMTQSPSSLSASVGDRVTITCRASQGISNYLAWYQQKPGKFPELLIYAASTLQSGVPSRFSGSGSGTDFTLTISSLQPEDVATYYCQKYNRAPFTFGPGTKVDIK",IL-17A/HFF bioassay IC50; 7. Subclone of (AMH20/AML20),[1],8.1 nM
same,IL-17A/HFF bioassay IC50; 8. Subclone of (AMH20/AML20),[1],6.6 nM
same,IL-17A/HFF bioassay IC50; 9. Subclone of (AMH20/AML20),[1],6.7 nM
"AMH17/AML17 (antibody, V domains shown) VH: QVQLVQSGAEVKKPGAAVKVSCKATGYTLTSYGISWVRQAPGQGLEWMGWISAYSGNTKYAQKLQGRVTMTTDTSTSTAYMELRSLRSDDTAVYYCARKQLVFDYWGQGTLVTVSS VL: not shown",IL-17A/HFF bioassay IC50; 21. Subclone of (AMH17/AML17),[1],2.5 nM
same,IL-17A/HFF bioassay IC50; 22. Subclone of (AMH17/AML17),[1],5.3 nM
same,IL-17A/HFF bioassay IC50; 23. Subclone of (AMH17/AML17),[1],0.57 nM
"AMH16/AML16 (antibody, IgG2, V domains shown) VH: QVQLVQSGAEVKKPGASVKVSCKASGYTFTSYGISWVRQAPGQGLEWMGWISAYNGNTKYAQKLQGRVTMTTDTSTSTVYMELRSLRSDDTAVYYCARKQLVFDYWGQGTLVTVSS VL: EIVMTQSPATLSVSPGERATLSCRASQSISTSLAWYQQKPGQAPRLLIYGTSTRATGIPARFSGSGSGTEFTLTISSLQSEDFAVYFCQQYDIWPLTFGGGTKVEIK",IL-17A/HFF bioassay IC50; 24. Subclone of (AMH16/AML16),[1],1.6 nM
same,IL-17A/HFF bioassay IC50; 25. Subclone of (AMH16/AML16),[1],2.3 nM
same,IL-17A/HFF bioassay IC50; 26. Subclone of (AMH16/AML16),[1],1.4 nM
"AMH19/AML19 (antibody, IgG2, V domains shown) VH: QVQLVQSGAEVKKPGASVKVSCKASGYTLTSYGISWVRQAPGQGLEWMGWISAYSGNTKYAQKFQGRVTMTTDTSTSTAYMELRSLRSDDTAVYYCARRQLALDYWGQGTLVTVSS VL: EIVMTQSPATLSVSPGERATLSCRASQSISSNLAWYQQKPGQAPRLLIYGASTRATGIPARFSDNGSGTEFTLTISSLQSEDFAVYFCQQYDTWPLTFGGGTKVEIK",IL-17A/HFF bioassay IC50; 10. Subclone of (AMH19/AML19),[1],0.22 nM
same,IL-17A/HFF bioassay IC50; 11. Subclone of (AMH19/AML19),[1],1.1 nM
same,IL-17A/HFF bioassay IC50; 12. Subclone of (AMH19/AML19),[1],0.5 nM
"AMH13/AML13 (antibody, IgG2, V domains shown) VH: QVQLVESGGGVVQPGRSLRLSCAASGFTFSSYGMQWVRQAPGKGLEWVAVIWYDGNKKYYADSVKGRFTISRDNSKNTLYLQMNSLRAEDTAVYYCARGRVRDYYYGMDVWGQGTTVTVSS VL: DIVMTQTPLSLSVTPGQPASIACKSSQSLLHSDGKTYLYWYLQKPGQPPQLLIYEVSTRFSGVPDRFSGSGSGTDFTLKISRVEAEDVGVFYCMQSIQLPLTFGGGTKVEIK",IL-17A/HFF bioassay IC50; 13. Subclone of (AMH13/AML13),[1],> 10 nM
"AMH18/AML18 (antibody, IgG2, V domains shown, human monoclonal antibody from IgG2 XenoMouse mice; also called AM-18) VH: QVQLVQSGAEVKKPGASVKVSCKASGYSFTDYYMHWVRQAPGQGLEWMGWMHPNSGGTDLAQRFQGRVTMTRDTSISTAYMELSRLRSDDTAVYYCARGGYCSTLSCSFYWYFDLWGRGTLVTVSS VL: not shown",IL-17A/HFF bioassay IC50; 14. Subclone of (AMH18/AML18),[1],0.44 nM
same,IL-17A/HFF bioassay IC50; 15. Subclone of (AMH18/AML18),[1],0.4 nM
same,IL-17A/HFF bioassay IC50; 16. Subclone of (AMH18/AML18),[1],0.17 nM
same,EC50 entry; zero = binding ablated,chimera L,0 nM
"AMH12/AML12 (antibody, IgG2, V domains shown) VH: QVQLVQSGAEVKKPGASVKVSCKASGYTLTSYGISWVRQAPGQGLEWMGWISTYKGNTNYAQKLQGRVTMTTDTSTSTAYMELRSLRSDDTAVYYCARKQLVFDYWGQGTLVTVSS VL: EIVMTQSPATLSVSPGERATLSCRASQSISSSLAWYQQKPGQAPRLLIYGASTRATGIPARFSGSGSGTEFTLTISSLQSENFAVYYCQQYDNWPLTFGGGTKVEIK",IL-17A/HFF bioassay IC50; 17. Subclone of (AMH12/AML12),[1],3.5 nM
same,IL-17A/HFF bioassay IC50; 18. Subclone of (AMH12/AML12),[1],3.7 nM
same,IL-17A/HFF bioassay IC50; 20. Subclone of (AMH12/AML12),[1],5.5 nM
"AMH4/AML4 (antibody, IgG2, V domains shown, human monoclonal antibody from IgG2 XenoMouse mice; also called AM-4) VH: QVQLVESGGGVVQPGRSLRLSCAASGINFSSYGMHWVRQAPGKGLEWVAVIWYDGSNKHYADSVKGRFTISRDNSKNTLYLQMNSLRAEDTAVYYCARDTGVYWGQGTLVTVSS VL: not shown",binding result,huIL-17RA-FLAG-polyHis,binds
"AMH7/AML7 (antibody, IgG2, V domains shown, human monoclonal antibody from IgG2 XenoMouse mice; also called AM-7) VH: QVQLVQSGAEVKKPGASVKVSCKASGYTLTRYGISWVRQAPGQGLEWMGWISAYNGNTNYAQKLQGRVTMTTDTSTSTAYMELRSLRSDDTAVYYCARRDYDILTGYYNGFDPWGQGTLVTVSS VL: DIQMTQSPSSLSASVGDRVTITCRASQGIRNDLGWYQQKPGKAPKRLIYAASSLQSGVPSRFSGSGSGTEFTLTISSLQPEDFATYYCLQHKSYPLTFGGGTKVEIK",binding result,huIL-17RA-FLAG-polyHis,binds
"AMH8/AML8 (antibody, IgG2, V domains shown, human monoclonal antibody from IgG2 XenoMouse mice; also called AM-8) VH: QVQLVQSGAEVKKPGASVKVSCKASGNTFTGYGISWVRQAPGQGLEWMGWISAYNGNTNYAQNLQGRVTMTTDTSTSTAYMELRSLRSDDTAVYYCARRDYDILTGYYNGFDPWGQGTLVTVSS VL: DIQMTQSPSSLSASVGDRVTITCRASQGIRNDLGWYQQKPGKAPKRLIYAASSLQSGVPSRFSGSGSGTEFTLTISSLQPEDFATYYCLQHKSYPLTFGGGTKVEIK",binding result,huIL-17RA-FLAG-polyHis,binds
"AMH6/AML6 (antibody, IgG2, V domains shown, human monoclonal antibody from IgG2 XenoMouse mice; also called AM-6) VH: QVQLVQSGAEVKKPGASVKVSCKASGYTLTRYGISWVRQAPGQGLEWMGWISAYNGNTNYAQKLQGRVTMTTDTSTSTAYMELRSLRSDDTAVYYCARRDYDILTGYYNGFDPWGQGTLVTVSS VL: DIQMTQSPSSLSASVGDRVTITCRASQGIRNDLGWYQQKPGKAPKRLIYAASSLQSGVPSRFSGSGSGTEFTLTISSLQPEDFATYYCLQHKSYPLTFGGGTKVEIK",binding result,huIL-17RA-FLAG-polyHis,binds
"AMH10/AML10 (antibody, IgG2, V domains shown, human monoclonal antibody from IgG2 XenoMouse mice; also called AM-10) VH: QVQLQESGPGLVKPSQTLSLTCTVSGGSISSGGYYWSWIRQHPGKGLEWIGYIYFSGSAYYNPSLKSRVAISVDTSKNQFSLKLSSVTAADTAVYYCAREYYDSSGYPDAFDIWGQGTMVTVSS VL: DIQMTQSPSSVSASVGDRVTITCRASQGIRSWLAWYQQKPGKAPKLLIFAASSLQSGVPSRFSGSGSGTEFTLTISSLQPEDFATYYCQQANNFPRTFGQGTKVEIK",binding result,huIL-17RA-FLAG-polyHis,binds
